In PMC4778049, “A Helitron transposon reconstructed from bats reveals a novel mechanism of genome shuffling in eukaryotes” (Nature Communications, 2016):

T1: Helraiser transposase (Myotis lucifugus, UniProt Z9MI32ZQP9, K1068Q)
T1 construct: full-length synthesized consensus transposase, 1,496 aa (N-terminal domain, Rep HUH nuclease, SF1 helicase); baculovirus expression, purified
T1 sequence (Z9MI32ZQP9 1-1496 K1068Q): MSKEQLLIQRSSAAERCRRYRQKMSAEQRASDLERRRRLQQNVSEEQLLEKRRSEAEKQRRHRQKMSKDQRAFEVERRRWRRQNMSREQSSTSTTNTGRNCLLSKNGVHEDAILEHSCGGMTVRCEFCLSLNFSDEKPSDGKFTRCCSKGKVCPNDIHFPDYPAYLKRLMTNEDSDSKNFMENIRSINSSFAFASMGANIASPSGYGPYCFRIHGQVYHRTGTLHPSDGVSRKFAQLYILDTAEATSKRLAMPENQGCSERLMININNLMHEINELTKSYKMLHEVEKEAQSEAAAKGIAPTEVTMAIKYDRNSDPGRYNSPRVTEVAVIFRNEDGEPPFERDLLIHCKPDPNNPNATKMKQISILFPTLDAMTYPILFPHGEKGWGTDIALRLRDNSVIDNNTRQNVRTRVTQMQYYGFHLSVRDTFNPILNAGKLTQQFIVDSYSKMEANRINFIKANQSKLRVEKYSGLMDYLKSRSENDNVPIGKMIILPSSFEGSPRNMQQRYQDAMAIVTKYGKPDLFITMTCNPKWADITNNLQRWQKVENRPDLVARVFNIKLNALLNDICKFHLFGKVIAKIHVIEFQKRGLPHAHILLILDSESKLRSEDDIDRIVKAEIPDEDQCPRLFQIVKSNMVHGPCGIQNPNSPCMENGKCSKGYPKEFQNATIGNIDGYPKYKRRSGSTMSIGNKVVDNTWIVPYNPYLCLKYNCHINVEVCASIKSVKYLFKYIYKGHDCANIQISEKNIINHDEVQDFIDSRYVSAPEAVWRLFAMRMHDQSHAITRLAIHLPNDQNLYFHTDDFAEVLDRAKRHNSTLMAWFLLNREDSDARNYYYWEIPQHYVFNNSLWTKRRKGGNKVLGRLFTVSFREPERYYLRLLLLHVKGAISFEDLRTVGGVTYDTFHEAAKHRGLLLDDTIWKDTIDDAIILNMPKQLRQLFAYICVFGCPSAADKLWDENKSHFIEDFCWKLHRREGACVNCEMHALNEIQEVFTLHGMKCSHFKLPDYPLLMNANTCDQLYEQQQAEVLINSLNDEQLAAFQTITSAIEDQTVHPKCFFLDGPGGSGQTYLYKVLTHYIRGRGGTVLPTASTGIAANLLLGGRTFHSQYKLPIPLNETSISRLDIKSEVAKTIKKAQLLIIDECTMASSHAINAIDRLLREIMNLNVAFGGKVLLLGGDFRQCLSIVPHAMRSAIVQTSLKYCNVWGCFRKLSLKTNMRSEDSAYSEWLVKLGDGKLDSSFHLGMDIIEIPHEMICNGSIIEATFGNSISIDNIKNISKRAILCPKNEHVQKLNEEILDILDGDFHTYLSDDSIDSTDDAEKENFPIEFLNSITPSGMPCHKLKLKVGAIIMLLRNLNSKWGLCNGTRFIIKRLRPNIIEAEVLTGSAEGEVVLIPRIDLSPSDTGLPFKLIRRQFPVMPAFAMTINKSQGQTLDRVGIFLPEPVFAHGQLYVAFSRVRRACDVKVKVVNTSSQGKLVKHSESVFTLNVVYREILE


Tests used:
Helraiser transposase = molecular target: T1, Helraiser transposase; test: colorimetric ATPase assay (pyrophosphate release as printed); assay type: biochemical; conditions: Walker A mutant; ATP hydrolysis abolished
[1] = substrate: Nc1ncnc2c1ncn2[C@@H]1O[C@H](COP(=O)(O)OP(=O)(O)OP(=O)(O)O)[C@@H](O)[C@H]1O; test: as above; assay type: biochemical, Myotis lucifugus; conditions: DNA, metal, pH and temperature of the Km measurement not told in main text; helicase domain (Walker A) site

Molecule	colorimetric ATPase assay (pyrophosphate release as printed) (Helraiser transposase)	Km [1] [µM]	kcat [1] [s⁻¹]
Nc1ncnc2c1ncn2[C@@H]1O[C@H](COP(=O)(O)OP(=O)(O)OP(=O)(O)O)[C@@H](O)[C@H]1O [ATP]	Mutation of the Walker A motif K1068 abolished ATP hydrolysis	–	–
Helraiser transposase (Myotis lucifugus) (protein, full-length synthesized consensus transposase, 1,496 aa (N-terminal domain, Rep HUH nuclease, SF1 helicase); baculovirus expression, purified) MSKEQLLIQRSSAAERCRRYRQKMSAEQRASDLERRRRLQQNVSEEQLLEKRRSEAEKQRRHRQKMSKDQRAFEVERRRWRRQNMSREQSSTSTTNTGRNCLLSKNGVHEDAILEHSCGGMTVRCEFCLSLNFSDEKPSDGKFTRCCSKGKVCPNDIHFPDYPAYLKRLMTNEDSDSKNFMENIRSINSSFAFASMGANIASPSGYGPYCFRIHGQVYHRTGTLHPSDGVSRKFAQLYILDTAEATSKRLAMPENQGCSERLMININNLMHEINELTKSYKMLHEVEKEAQSEAAAKGIAPTEVTMAIKYDRNSDPGRYNSPRVTEVAVIFRNEDGEPPFERDLLIHCKPDPNNPNATKMKQISILFPTLDAMTYPILFPHGEKGWGTDIALRLRDNSVIDNNTRQNVRTRVTQMQYYGFHLSVRDTFNPILNAGKLTQQFIVDSYSKMEANRINFIKANQSKLRVEKYSGLMDYLKSRSENDNVPIGKMIILPSSFEGSPRNMQQRYQDAMAIVTKYGKPDLFITMTCNPKWADITNNLQRWQKVENRPDLVARVFNIKLNALLNDICKFHLFGKVIAKIHVIEFQKRGLPHAHILLILDSESKLRSEDDIDRIVKAEIPDEDQCPRLFQIVKSNMVHGPCGIQNPNSPCMENGKCSKGYPKEFQNATIGNIDGYPKYKRRSGSTMSIGNKVVDNTWIVPYNPYLCLKYNCHINVEVCASIKSVKYLFKYIYKGHDCANIQISEKNIINHDEVQDFIDSRYVSAPEAVWRLFAMRMHDQSHAITRLAIHLPNDQNLYFHTDDFAEVLDRAKRHNSTLMAWFLLNREDSDARNYYYWEIPQHYVFNNSLWTKRRKGGNKVLGRLFTVSFREPERYYLRLLLLHVKGAISFEDLRTVGGVTYDTFHEAAKHRGLLLDDTIWKDTIDDAIILNMPKQLRQLFAYICVFGCPSAADKLWDENKSHFIEDFCWKLHRREGACVNCEMHALNEIQEVFTLHGMKCSHFKLPDYPLLMNANTCDQLYEQQQAEVLINSLNDEQLAAFQTITSAIEDQTVHPKCFFLDGPGGSGKTYLYKVLTHYIRGRGGTVLPTASTGIAANLLLGGRTFHSQYKLPIPLNETSISRLDIKSEVAKTIKKAQLLIIDECTMASSHAINAIDRLLREIMNLNVAFGGKVLLLGGDFRQCLSIVPHAMRSAIVQTSLKYCNVWGCFRKLSLKTNMRSEDSAYSEWLVKLGDGKLDSSFHLGMDIIEIPHEMICNGSIIEATFGNSISIDNIKNISKRAILCPKNEHVQKLNEEILDILDGDFHTYLSDDSIDSTDDAEKENFPIEFLNSITPSGMPCHKLKLKVGAIIMLLRNLNSKWGLCNGTRFIIKRLRPNIIEAEVLTGSAEGEVVLIPRIDLSPSDTGLPFKLIRRQFPVMPAFAMTINKSQGQTLDRVGIFLPEPVFAHGQLYVAFSRVRRACDVKVKVVNTSSQGKLVKHSESVFTLNVVYREILE	–	46 ± 3.3	6.8 ± 0.11
